Results on three substances are retold here after publication PMC12717009.

For experiment [1], the target named is Nup116FG (amino acids 1–725), hydrogel particles (S. cerevisiae) (UniProt Q02630). The experiment can be described thus: FG-hydrogel permeation assay (confocal fluorescence); preformed NupFG hydrogel particles (3.3 µM total NupFG, 5% FMAL-labelled, TBS); Kap95–AF568 in 150 mM NaCl, 100 mM Tris pH 8 added.
The target in experiment [2] is NPCs isolated from an Mlp1ppxPrA pNup84–mCherry strain expressing Kap95–GFP (S. cerevisiae (endogenous) | S. cerevisiae) (UniProt Q02455). The experiment can be described thus: immunofluorescence of isolated NPCs on coverglass (confocal); isolated NPCs kept in PBS at 4 °C for 0, 24, 48 and 72 h, put on poly-L-lysine coverglass; anti-eGFP–AF647 signal at spots co-localized with anti-mCherry–AF568; single-exponential fit of the loss.

Experiment [3] addresses isolated native yeast (wild type) nuclear pore complex (S. cerevisiae (endogenous)) (UniProt Q02455). The experiment can be described thus: affinity purification with mass spectrometry; whole NPCs captured through Mlp1-ppx-PrA from cryogenically lysed yeast (20 mM HEPES–KOH pH 7.4, 50 mM potassium acetate, 20 mM NaCl, 2 mM MgCl2, Triton X-100, Tween-20), native elution by protease cleavage; label-free quantitation; +CP (after isolation) compared with −CP (72 h in buffer) NPCs.

In experiment [1], “Kap95 labelled with Alexa Fluor 568 C5 maleimide (from UniProt Q06142 1-861) (natural protein)” registered a concentration of Kap95–AF568 in Nup116FG particles of 1.58 µM.
In turn, “Kap95–GFP expressed under its native promoter (from UniProt Q06142 1-861) (natural protein)” showed a half-life of dissociation (t1/2) in experiment [2] of 20.1 h.
“endogenous Kap95 (from UniProt Q06142 1-861) (natural protein)” yielded a stoichiometry N (Kap95 molecules per NPC) in experiment [3] of 15 to 20.
